Source: paper PMC5839545, “CENP-C/H/I/K/M/T/W/N/L and hMis12 but not CENP-S/X participate in complex formation in the nucleoplasm of living human interphase cells outside centromeres” (PLoS ONE, 2018)
Blank lines part the entries; values can stand above or below the binder they belong to.

Assays:
Details in all cases: partners not purified
mCherry-(s)-CENP-W = molecular target: T1, mCherry-(s)-CENP-W (human, UniProt Q5EE01 1-88); assay: single-wavelength fluorescence cross-correlation spectroscopy (SW-FCCS); EGFP and mCherry fusion proteins co-expressed in living interphase HEK293 cells; nucleoplasm; 37°C; 514 nm; effective (apparent) Kd from scatter plot (S) or histogram (H), corrected for non-fluorescent mCherry and observation volumes
T1 construct: CENP-W, human; source: HEp-2 or U2OS cells (DC-FCCS) and HEK293 cells (SW-FCCS), transfected by electroporation, in living cells

mCherry-(s)-Nsl1 = molecular target: T2, mCherry-(s)-Nsl1 (human, UniProt Q96IY1 1-281); assay: dual color fluorescence cross-correlation spectroscopy (DC-FCCS); EGFP and mCherry fusion proteins co-expressed in living interphase HEp-2 or U2OS cells; spots in the nucleoplasm free of kinetochores, focal volume bleached before; 37°C; 488 and 561 nm; corrected values are the measured ones times about two
T2 construct: Nsl1 of the hMis12 complex, human; source: HEp-2 or U2OS cells, transfected by electroporation, in living cells
T2 sequence (looked up): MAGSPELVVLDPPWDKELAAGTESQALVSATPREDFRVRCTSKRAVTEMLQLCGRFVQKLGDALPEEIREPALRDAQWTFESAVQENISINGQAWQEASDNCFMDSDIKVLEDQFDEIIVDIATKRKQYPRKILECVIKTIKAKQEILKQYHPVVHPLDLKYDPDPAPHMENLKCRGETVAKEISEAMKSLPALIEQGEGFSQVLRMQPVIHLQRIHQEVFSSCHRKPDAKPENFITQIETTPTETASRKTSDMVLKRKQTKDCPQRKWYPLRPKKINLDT

hMis12-(s)-mCherry = molecular target: T3, hMis12-(s)-mCherry (human, UniProt Q9H081 1-205); assay: as above
T3 construct: hMis12, human; source: HEp-2 or U2OS cells, transfected by electroporation, in living cells; not shown: mCherry (short linker)
T3 sequence (looked up): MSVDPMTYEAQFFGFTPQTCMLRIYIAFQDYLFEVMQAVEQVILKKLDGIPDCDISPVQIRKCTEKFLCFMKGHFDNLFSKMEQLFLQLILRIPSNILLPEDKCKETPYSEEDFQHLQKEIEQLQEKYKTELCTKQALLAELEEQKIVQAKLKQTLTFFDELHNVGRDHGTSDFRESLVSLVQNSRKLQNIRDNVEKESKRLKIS

mCherry-(s)-Nnf1 = molecular target: T4, mCherry-(s)-Nnf1 (human, UniProt Q6P1K2 1-205); assay: as above
T4 construct: Nnf1 of the hMis12 complex, human; source: HEp-2 or U2OS cells, transfected by electroporation, in living cells
T4 sequence (looked up): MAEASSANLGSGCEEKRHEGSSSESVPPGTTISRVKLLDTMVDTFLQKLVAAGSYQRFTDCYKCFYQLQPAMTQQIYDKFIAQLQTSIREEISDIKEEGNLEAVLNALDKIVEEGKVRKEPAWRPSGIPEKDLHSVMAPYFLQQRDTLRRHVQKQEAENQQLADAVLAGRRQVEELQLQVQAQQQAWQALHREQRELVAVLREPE

Nnf1-(s)-mCherry = molecular target: T5, Nnf1-(s)-mCherry (human, UniProt Q6P1K2 1-205); assay: as above
T5 construct: Nnf1 of the hMis12 complex, human; source: HEp-2 or U2OS cells, transfected by electroporation, in living cells; not shown: mCherry (short linker)
T5 sequence (looked up): T4 sequence (looked up)

CENP-T-(s)-mCherry = molecular target: T6, CENP-T-(s)-mCherry (human, UniProt Q96BT3 1-561); assay: as above
T6 construct: CENP-T, human; called full-length CENP-T against its N-terminal domain; source: HEp-2 or U2OS cells, transfected by electroporation, in living cells; not shown: mCherry (short linker)

mCherry-(s)-CENP-T = molecular target: T7, mCherry-(s)-CENP-T (human, UniProt Q96BT3 1-561); assay: as above
T7 construct: CENP-T, human; called wildtype against CENP-T^∆N; source: HEp-2 or U2OS cells (DC-FCCS) and HEK293 cells (SW-FCCS), transfected by electroporation, in living cells

mCherry-(s)-CENP-K = molecular target: T8, mCherry-(s)-CENP-K (human, UniProt Q9BS16 1-269); assay: as above
T8 construct: CENP-K, human; also called mCherry-CENP-K; source: HEp-2 or U2OS cells, transfected by electroporation, in living cells
T8 sequence (Q9BS16 whole entry): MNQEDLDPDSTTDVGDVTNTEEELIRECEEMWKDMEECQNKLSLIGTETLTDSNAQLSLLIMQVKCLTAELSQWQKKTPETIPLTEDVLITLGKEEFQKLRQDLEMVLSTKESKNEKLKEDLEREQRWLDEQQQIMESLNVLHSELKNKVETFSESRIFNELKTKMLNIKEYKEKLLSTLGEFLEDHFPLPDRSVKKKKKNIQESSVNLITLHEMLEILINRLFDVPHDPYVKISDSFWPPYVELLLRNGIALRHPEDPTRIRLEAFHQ

T1 sequence (Q5EE01 whole entry, the tested form may be a part): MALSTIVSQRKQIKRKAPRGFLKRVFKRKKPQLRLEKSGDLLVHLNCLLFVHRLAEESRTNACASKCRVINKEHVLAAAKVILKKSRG

- dimer, corrected (%) (mCherry-(s)-CENP-W): 24%
- dimer, uncorrected (%) (mCherry-(s)-CENP-W): 18.2%
B1: EGFP-(s)-CENP-T^∆N (domain or fragment, human, UniProt Q96BT3 396-561, looked up)
chain: ASPESASSTPESLQARRHHQFLEPAPAPGAAVLSSEPAEPLLVRHPPRPRTTGPRPRQDPHKAGLSHYVKLFSFYAKMPMERKALEMVEKCLDKYFQHLCDDLEVFAAHAGRKTVKPEDLELLMRRQGLVTDQVSLHVLVERHLPLEYRQLLIPCAYSGNSVFPAQ
notes: CENP-T, human, C-terminal domain, aas 396-561, said to contain the histone-fold domain (aas 376-561); also called EGFP-(s)-CENP-T^396-561; source: HEK293 cells, transfected by electroporation, in living cells

- cross-correlation, measured (%) (mCherry-(s)-Nsl1): 24%
- cross-correlation, measured (%) (hMis12-(s)-mCherry): 32%
- cross-correlation, measured (%) (mCherry-(s)-Nnf1): 22%
B2: EGFP-(s)-Dsn1 (natural protein, human, UniProt Q9H410 1-356, looked up)
chain: MTSVTRSEIIDEKGPVMSKTHDHQLESSLSPVEVFAKTSASLEMNQGVSEERIHLGSSPKKGGNCDLSHQERLQSKSLHLSPQEQSASYQDRRQSWRRASMKETNRRKSLHPIHQGITELSRSISVDLAESKRLGCLLLSSFQFSIQKLEPFLRDTKGFSLESFRAKASSLSEELKHFADGLETDGTLQKCFEDSNGKASDFSLEASVAEMKEYITKFSLERQTWDQLLLHYQQEAKEILSRGSTEAKITEVKVEPMTYLGSSQNEVLNTKPDYQKILQNQSKVFDCMELVMDELQGSVKQLQAFMDESTQCFQKVSVQLGKRSMQQLDPSPARKLLKLQLQNPPAIHGSGSGSCQ
notes: Dsn1 of the hMis12 complex, human; source: HEp-2 or U2OS cells, transfected by electroporation, in living cells

- cross-correlation, measured (%) (Nnf1-(s)-mCherry): 31%
- cross-correlation, measured (%) (CENP-T-(s)-mCherry): 19%
- cross-correlation, measured (%) (mCherry-(s)-CENP-T): 18%
- cross-correlation, measured (%) (mCherry-(s)-CENP-K): 18%
B3: hMis12-(s)-EGFP (natural protein, human, UniProt Q9H081 1-205, looked up)
chain: T3 sequence (looked up)
notes: hMis12, human; source: HEp-2 or U2OS cells, transfected by electroporation, in living cells; not shown: EGFP (short linker)

- cross-correlation, measured (%) (mCherry-(s)-Nnf1): 18%
B4: EGFP-(s)-Nsl1 (natural protein, human, UniProt Q96IY1 1-281, looked up)
chain: T2 sequence (looked up)
notes: Nsl1 of the hMis12 complex, human; source: HEp-2 or U2OS cells, transfected by electroporation, in living cells

- cross-correlation, measured (%) (hMis12-(s)-mCherry): 36%
B5: Nsl1-(s)-EGFP (natural protein, human, UniProt Q96IY1 1-281, looked up)
chain: T2 sequence (looked up)
notes: Nsl1 of the hMis12 complex, human; source: HEp-2 or U2OS cells, transfected by electroporation, in living cells; not shown: EGFP (short linker)
